According to patent US20170073382:

Target: synthetic TAL effector (RVG-LAMP-2B-NLS-TALE) (Artificial Sequence) (UniProt P14727)
Experiment: cell_activity

**Q.** “gfaABC1D-NeuroD1 plasmid without TAL effector binding site” was tested. Which binding signal did it give?
**A.** 1 fold
